For one molecule, Kd results are on record in publication PMC11423142, “Clec7a Worsens Long‐Term Outcomes after Ischemic Stroke by Aggravating Microglia‐Mediated Synapse Elimination” (Advanced Science, 2024).

For this experiment, the target named is T1, purified human Clec7a protein (R&D Systems Cat. 1859-DC-050) (human, UniProt Q9BXN2 66-247).
T1 construct: Clec7a, human, bought recombinant protein; source: bought: R&D Systems (Cat. 1859-DC-050)
T1 sequence (looked up): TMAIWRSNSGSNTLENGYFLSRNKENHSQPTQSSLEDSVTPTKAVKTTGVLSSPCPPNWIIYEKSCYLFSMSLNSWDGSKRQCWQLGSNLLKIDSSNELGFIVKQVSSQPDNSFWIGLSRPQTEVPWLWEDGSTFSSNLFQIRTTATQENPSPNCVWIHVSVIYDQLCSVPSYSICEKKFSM
Put plainly: MST; Monolith NT.115, 20 °C, 20 mM HEPES pH 8.0, 150 mM NaCl; Clec7a constant at 50 nM, MD2 varied from 10 µM to 1.2 nM; n = 3. The note with it: both partners purified.

B1: human MD2 protein (R&D Systems Cat. 1787-MD) (ligand, UniProt Q9Y6Y9 19-160, looked up)
chain: QKQYWVCNSSDASISYTYCDKMQYPISINVNPCIELKRSKGLLHIFYIPRRDLKQLYFNLYITVNTMNLPKRKEVICRGSDDDYSFCRALKGETVNTTISFSFKGIKFSKGKYKCVVEAISGSPEEMLFCLEFVILHQPNSN
notes: MD2 (lymphocyte antigen 96), human, bought recombinant protein; source: bought: R&D Systems (Cat. 1787-MD)
The molecule B1 registered a Kd of 2960 nM.
